Values quoted from earlier work in patent publication US20190390191A1, “CONSTRUCTING ENZYME-BASED SENSORS” (PharmaSeq, Inc., priority 2018, published 2019).

Legend:
[1] = for T. aquaticus; Yeh et al.
[2] = E. coli enzyme; Boulanger et al.

| Substance | Km [1] | Tm [2] |
| --- | --- | --- |
| Alkaline phosphatase | 840 µM |  |
| Alkaline phosphatase of E. coli: zinc-containing dimeric enzyme encoded by the phoA gene of E. coli |  | 97 °C |
